# Measurements as given in publication PMC9482650, “Quantitative fragmentomics allow affinity mapping of interactomes” (Nature Communications, 2022).
# T1: MPDZ_10, O75970
# T1 sequence (O75970 1624-1722, limits assumed, looked up): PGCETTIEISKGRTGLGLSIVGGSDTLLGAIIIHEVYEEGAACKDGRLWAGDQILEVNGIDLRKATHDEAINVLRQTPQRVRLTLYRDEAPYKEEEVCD
# T2: TIAM2, Q8IVF5
# T2 sequence (Q8IVF5 885-986, limits assumed, looked up): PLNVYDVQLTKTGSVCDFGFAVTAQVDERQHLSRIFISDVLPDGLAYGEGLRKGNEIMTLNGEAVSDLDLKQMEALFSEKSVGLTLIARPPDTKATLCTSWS
# T3: GRIP1_7, Q9Y3R0
# T3 sequence (Q9Y3R0 999-1096, limits assumed, looked up): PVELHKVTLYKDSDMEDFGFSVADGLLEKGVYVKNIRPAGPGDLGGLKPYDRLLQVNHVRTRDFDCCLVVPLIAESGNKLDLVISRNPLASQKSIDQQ
# T4: GRIP1_2, Q9Y3R0
# T4 sequence (Q9Y3R0 145-248, limits assumed, looked up): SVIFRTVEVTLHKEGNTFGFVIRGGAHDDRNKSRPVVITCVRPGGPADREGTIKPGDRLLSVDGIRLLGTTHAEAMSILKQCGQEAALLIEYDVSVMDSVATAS
# T5: LIN7A, O14910
# T5 sequence (O14910 103-200, limits assumed, looked up): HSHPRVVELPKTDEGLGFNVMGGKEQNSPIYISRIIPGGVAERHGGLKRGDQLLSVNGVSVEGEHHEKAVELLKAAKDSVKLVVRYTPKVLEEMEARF
# T6: NHERF3_1, Q5T2W1
# T6 sequence (Q5T2W1 4-100, limits assumed, looked up): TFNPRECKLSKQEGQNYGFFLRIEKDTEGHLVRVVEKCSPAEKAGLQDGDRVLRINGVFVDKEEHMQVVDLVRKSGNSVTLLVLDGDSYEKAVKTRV
# T7: APBA1_1, Q02410
# T7 sequence (Q02410 651-752, limits assumed, looked up): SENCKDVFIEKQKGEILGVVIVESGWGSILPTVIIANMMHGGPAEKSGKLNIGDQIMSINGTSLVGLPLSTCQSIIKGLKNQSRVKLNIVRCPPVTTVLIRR
# T8: PCLO, Q9Y6V0
# T8 sequence (Q9Y6V0 4491-4600, limits assumed, looked up): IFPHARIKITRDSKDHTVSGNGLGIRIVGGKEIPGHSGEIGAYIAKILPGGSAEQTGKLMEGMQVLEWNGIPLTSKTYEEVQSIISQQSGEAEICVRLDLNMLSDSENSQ
# T9: RADIL, Q96JH8
# T9 sequence (Q96JH8 971-1071, limits assumed, looked up): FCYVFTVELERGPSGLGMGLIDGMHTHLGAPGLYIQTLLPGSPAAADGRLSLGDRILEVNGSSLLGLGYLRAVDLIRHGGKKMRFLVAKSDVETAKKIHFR
# T10: GRIP1_3, Q9Y3R0
# T10 sequence (Q9Y3R0 247-346, limits assumed, looked up): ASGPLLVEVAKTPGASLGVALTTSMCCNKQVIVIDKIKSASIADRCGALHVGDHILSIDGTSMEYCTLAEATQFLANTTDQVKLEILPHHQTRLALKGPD
# Molecular target: T1, MPDZ_10, O75970
# Experiment: holdup assay
# Design: key: below the threshold = too weak to quantify, mostly under pKd 3.1 to 4
# Details: plain residues with an end cap or a label only (N-terminal biotin on a linker: ado-ado)
row,pKd,Binder
1,below the threshold,"QKAPTKEFYA [SDC2, P34741]"

# Molecular target: GORASP2, Q9H8Y8
# Experiment: holdup assay
# Design: key: below the threshold = too weak to quantify, mostly under pKd 3.1 to 4
# Details: plain residues with an end cap or a label only (N-terminal biotin on a linker: ado-ado)
row,pKd,Binder
1,3.93,"QKAPTKEFYA [SDC2, P34741]"

# Molecular target: T2, TIAM2, Q8IVF5
# Experiment: holdup assay
# Design: key: below the threshold = too weak to quantify, mostly under pKd 3.1 to 4
# Details: plain residues with an end cap or a label only (N-terminal biotin on a linker: ado-ado)
row,pKd,Binder
1,4.34,"QKAPTKEFYA [SDC2, P34741]"

# Molecular target: TJP1_2, Q07157
# Sequence (Q07157 181-274): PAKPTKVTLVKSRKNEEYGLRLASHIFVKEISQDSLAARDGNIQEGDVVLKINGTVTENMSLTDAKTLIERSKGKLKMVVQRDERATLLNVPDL
# Experiment: holdup assay
# Design: key: below the threshold = too weak to quantify, mostly under pKd 3.1 to 4
# Details: plain residues with an end cap or a label only (N-terminal biotin on a linker: ado-ado)
row,pKd,Binder
1,below the threshold,"QKAPTKEFYA [SDC2, P34741]"

# Molecular target: LDB3, O75112
# Sequence (O75112 1-94): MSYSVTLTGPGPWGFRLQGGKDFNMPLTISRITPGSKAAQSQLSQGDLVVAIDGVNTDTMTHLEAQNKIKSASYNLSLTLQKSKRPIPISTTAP
# Experiment: holdup assay
# Design: key: below the threshold = too weak to quantify, mostly under pKd 3.1 to 4
# Details: plain residues with an end cap or a label only (N-terminal biotin on a linker: ado-ado)
row,pKd,Binder
1,below the threshold,"QKAPTKEFYA [SDC2, P34741]"

# Molecular target: T3, GRIP1_7, Q9Y3R0
# Experiment: holdup assay
# Design: key: below the threshold = too weak to quantify, mostly under pKd 3.1 to 4
# Details: plain residues with an end cap or a label only (N-terminal biotin on a linker: ado-ado)
row,pKd,Binder
1,below the threshold,"QKAPTKEFYA [SDC2, P34741]"

# Molecular target: DLG2_2, Q15700
# Experiment: holdup assay
# Design: key: below the threshold = too weak to quantify, mostly under pKd 3.1 to 4
# Details: plain residues with an end cap or a label only (N-terminal biotin on a linker: ado-ado)
row,pKd,Binder
1,below the threshold,"QKAPTKEFYA [SDC2, P34741]"

# Molecular target: MAGI2_2, Q86UL8
# Sequence (Q86UL8 410-522): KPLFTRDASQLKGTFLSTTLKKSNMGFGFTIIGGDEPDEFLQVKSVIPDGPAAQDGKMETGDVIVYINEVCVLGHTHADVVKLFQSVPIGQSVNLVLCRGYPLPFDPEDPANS
# Experiment: holdup assay
# Design: key: below the threshold = too weak to quantify, mostly under pKd 3.1 to 4
# Details: plain residues with an end cap or a label only (N-terminal biotin on a linker: ado-ado)
row,pKd,Binder
1,below the threshold,"QKAPTKEFYA [SDC2, P34741]"

# Molecular target: SCRIB_3, Q14160
# Sequence (Q14160 999-1103): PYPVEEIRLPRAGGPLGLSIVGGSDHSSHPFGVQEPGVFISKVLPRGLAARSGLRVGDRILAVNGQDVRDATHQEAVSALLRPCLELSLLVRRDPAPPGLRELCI
# Experiment: holdup assay
# Design: key: below the threshold = too weak to quantify, mostly under pKd 3.1 to 4
# Details: plain residues with an end cap or a label only (N-terminal biotin on a linker: ado-ado)
row,pKd,Binder
1,below the threshold,"QKAPTKEFYA [SDC2, P34741]"

# Molecular target: AHNAK1, Q09666
# Sequence (Q09666 4-100): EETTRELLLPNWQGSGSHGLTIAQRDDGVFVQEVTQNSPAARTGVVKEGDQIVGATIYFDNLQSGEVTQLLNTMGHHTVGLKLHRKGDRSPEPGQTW
# Experiment: holdup assay
# Design: key: below the threshold = too weak to quantify, mostly under pKd 3.1 to 4
# Details: plain residues with an end cap or a label only (N-terminal biotin on a linker: ado-ado)
row,pKd,Binder
1,below the threshold,"QKAPTKEFYA [SDC2, P34741]"

# Molecular target: T4, GRIP1_2, Q9Y3R0
# Experiment: holdup assay
# Design: key: below the threshold = too weak to quantify, mostly under pKd 3.1 to 4
# Details: plain residues with an end cap or a label only (N-terminal biotin on a linker: ado-ado)
row,pKd,Binder
1,below the threshold,"QKAPTKEFYA [SDC2, P34741]"

# Molecular target: TJP1_3, Q07157
# Sequence (Q07157 416-512): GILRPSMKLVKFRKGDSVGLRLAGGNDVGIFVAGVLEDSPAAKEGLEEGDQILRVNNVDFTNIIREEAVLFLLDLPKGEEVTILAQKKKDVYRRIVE
# Experiment: holdup assay
# Design: key: below the threshold = too weak to quantify, mostly under pKd 3.1 to 4
# Details: plain residues with an end cap or a label only (N-terminal biotin on a linker: ado-ado)
row,pKd,Binder
1,below the threshold,"QKAPTKEFYA [SDC2, P34741]"

# Molecular target: GRID2IP_1, A4D2P6
# Sequence (A4D2P6 1-87): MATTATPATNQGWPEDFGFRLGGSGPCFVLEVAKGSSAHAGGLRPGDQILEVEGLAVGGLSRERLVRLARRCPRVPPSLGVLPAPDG
# Experiment: holdup assay
# Design: key: below the threshold = too weak to quantify, mostly under pKd 3.1 to 4
# Details: plain residues with an end cap or a label only (N-terminal biotin on a linker: ado-ado)
row,pKd,Binder
1,below the threshold,"QKAPTKEFYA [SDC2, P34741]"

# Molecular target: NHERF4_4, Q86UT5
# Sequence (Q86UT5 464-550): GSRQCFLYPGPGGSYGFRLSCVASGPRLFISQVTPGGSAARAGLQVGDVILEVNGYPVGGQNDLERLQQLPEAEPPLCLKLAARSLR
# Experiment: holdup assay
# Design: key: below the threshold = too weak to quantify, mostly under pKd 3.1 to 4
# Details: plain residues with an end cap or a label only (N-terminal biotin on a linker: ado-ado)
row,pKd,Binder
1,below the threshold,"QKAPTKEFYA [SDC2, P34741]"

# Molecular target: GRIP2_7, Q9C0E4
# Sequence (Q9C0E4 934-1023): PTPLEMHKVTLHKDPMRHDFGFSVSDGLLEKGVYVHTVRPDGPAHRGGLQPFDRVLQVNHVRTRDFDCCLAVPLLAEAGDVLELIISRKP
# Experiment: holdup assay
# Design: key: below the threshold = too weak to quantify, mostly under pKd 3.1 to 4
# Details: plain residues with an end cap or a label only (N-terminal biotin on a linker: ado-ado)
row,pKd,Binder
1,below the threshold,"QKAPTKEFYA [SDC2, P34741]"

# Molecular target: DLG1_3, Q12959
# Experiment: holdup assay
# Design: key: below the threshold = too weak to quantify, mostly under pKd 3.1 to 4
# Details: plain residues with an end cap or a label only (N-terminal biotin on a linker: ado-ado)
row,pKd,Binder
1,below the threshold,"QKAPTKEFYA [SDC2, P34741]"

# Molecular target: GOPC, Q9HD26
# Experiment: holdup assay
# Design: key: below the threshold = too weak to quantify, mostly under pKd 3.1 to 4
# Details: plain residues with an end cap or a label only (N-terminal biotin on a linker: ado-ado)
row,pKd,Binder
1,below the threshold,"QKAPTKEFYA [SDC2, P34741]"

# Molecular target: T5, LIN7A, O14910
# Experiment: holdup assay
# Design: key: below the threshold = too weak to quantify, mostly under pKd 3.1 to 4
# Details: plain residues with an end cap or a label only (N-terminal biotin on a linker: ado-ado)
row,pKd,Binder
1,below the threshold,"QKAPTKEFYA [SDC2, P34741]"

# Molecular target: T6, NHERF3_1, Q5T2W1
# Experiment: holdup assay
# Design: key: below the threshold = too weak to quantify, mostly under pKd 3.1 to 4
# Details: plain residues with an end cap or a label only (N-terminal biotin on a linker: ado-ado)
row,pKd,Binder
1,3.86,"QKAPTKEFYA [SDC2, P34741]"

# Molecular target: T7, APBA1_1, Q02410
# Experiment: holdup assay
# Design: key: below the threshold = too weak to quantify, mostly under pKd 3.1 to 4
# Details: plain residues with an end cap or a label only (N-terminal biotin on a linker: ado-ado)
row,pKd,Binder
1,below the threshold,"QKAPTKEFYA [SDC2, P34741]"

# Molecular target: DLG1_1, Q12959
# Experiment: holdup assay
# Design: key: below the threshold = too weak to quantify, mostly under pKd 3.1 to 4
# Details: plain residues with an end cap or a label only (N-terminal biotin on a linker: ado-ado)
row,pKd,Binder
1,below the threshold,"QKAPTKEFYA [SDC2, P34741]"

# Molecular target: GIPC2, Q8TF65
# Sequence (Q8TF65 112-203): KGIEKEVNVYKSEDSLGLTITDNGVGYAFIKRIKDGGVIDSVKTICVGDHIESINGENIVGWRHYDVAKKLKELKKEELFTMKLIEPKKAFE
# Experiment: holdup assay
# Design: key: below the threshold = too weak to quantify, mostly under pKd 3.1 to 4
# Details: plain residues with an end cap or a label only (N-terminal biotin on a linker: ado-ado)
row,pKd,Binder
1,below the threshold,"QKAPTKEFYA [SDC2, P34741]"

# Molecular target: T8, PCLO, Q9Y6V0
# Experiment: holdup assay
# Design: key: below the threshold = too weak to quantify, mostly under pKd 3.1 to 4
# Details: plain residues with an end cap or a label only (N-terminal biotin on a linker: ado-ado)
row,pKd,Binder
1,below the threshold,"QKAPTKEFYA [SDC2, P34741]"

# Molecular target: T9, RADIL, Q96JH8
# Experiment: holdup assay
# Design: key: below the threshold = too weak to quantify, mostly under pKd 3.1 to 4
# Details: plain residues with an end cap or a label only (N-terminal biotin on a linker: ado-ado)
row,pKd,Binder
1,3.51,"QKAPTKEFYA [SDC2, P34741]"

# Molecular target: MAGI2_3, Q86UL8
# Sequence (Q86UL8 600-682): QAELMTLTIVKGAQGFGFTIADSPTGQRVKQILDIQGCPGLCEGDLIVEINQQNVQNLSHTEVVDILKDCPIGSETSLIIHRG
# Experiment: holdup assay
# Design: key: below the threshold = too weak to quantify, mostly under pKd 3.1 to 4
# Details: plain residues with an end cap or a label only (N-terminal biotin on a linker: ado-ado)
row,pKd,Binder
1,below the threshold,"QKAPTKEFYA [SDC2, P34741]"

# Molecular target: DLG2_3, Q15700
# Experiment: holdup assay
# Design: key: below the threshold = too weak to quantify, mostly under pKd 3.1 to 4
# Details: plain residues with an end cap or a label only (N-terminal biotin on a linker: ado-ado)
row,pKd,Binder
1,3.83,"QKAPTKEFYA [SDC2, P34741]"

# Molecular target: T10, GRIP1_3, Q9Y3R0
# Experiment: holdup assay
# Design: key: below the threshold = too weak to quantify, mostly under pKd 3.1 to 4
# Details: plain residues with an end cap or a label only (N-terminal biotin on a linker: ado-ado)
row,pKd,Binder
1,below the threshold,"QKAPTKEFYA [SDC2, P34741]"

# Molecular target: Inadl_1, Q8NI35
# Sequence (Q8NI35 113-229): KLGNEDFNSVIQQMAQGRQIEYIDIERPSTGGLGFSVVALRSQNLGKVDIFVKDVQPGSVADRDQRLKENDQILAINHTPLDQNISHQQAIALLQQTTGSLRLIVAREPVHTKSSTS
# Experiment: holdup assay
# Design: key: below the threshold = too weak to quantify, mostly under pKd 3.1 to 4
# Details: plain residues with an end cap or a label only (N-terminal biotin on a linker: ado-ado)
row,pKd,Binder
1,below the threshold,"QKAPTKEFYA [SDC2, P34741]"
